Data on 1 molecule can be found in patent US7125847 (RESEARCH FOUNDATION OF STATE UNIVERSITY OF NEW YORK AT …, dated 2006).

The experiment concerns the target stretch-activated channels (cationic SACs) of ventricular myocytes from rabbits with aortic … (rabbit). Description: cell-based or functional assay.

Where no end group is shown, it is not given here.

B1: GsMTx-4 purified from Grammostola spatulata venom (peptide)
peptide: GCLEFWWKCNPNDDKCCRPKLKCSKLFKLCNFSSG-NH2
modifications: disulfide (positions not given here); not fully specified (bridges); also: 3 disulfides (ICK motif), pairing not given here
With B1, the “myocyte cell volume reduction relative to that produced by 1.5 T saline” value is approximately 40%.
